# Source: paper PMC12102760 (2025)
# B1: Fab F1 (Fab, V domains shown)
# VH: EVQLVESGGGLVQPGGSLRLSCAASGFDSGAYLRHWVRQAPGKGLEWVASIYPSYGYTSYADSVKGRFTISADTSKNTAYLQMNSLRAEDTAVYYCARSAASYYGYWHWYHFSPGMDYWGQGTLVTVSS
# VL: DIQMTQSPSSLSASVGDRVTITCRASQSVSSAVAWYQQKPGKAPKLLIYSASDLYSGVPSRFSGSRSGTDFTLTISSLQPEDFATYYCQQYVSGGWLITFGQGTKVEIK
# B2: Fab C1 (Fab, V domains shown)
# VH: EVQLVESGGGLVQPGGSLRLSCAASGFTIYYSSMHWVRQAPGKGLEWVASISSYYGYTYYADSVKGRFTISADTSKNTAYLQMNSLRAEDTAVYYCARYYAMDYWGQGTLVTVSS
# VL: DIQMTQSPSSLSASVGDRVTITCRASQSVSSAVAWYQQKPGKAPKLLIYSASSLYSGVPSRFSGSRSGTDFTLTISSLQPEDFATYYCQQYYGYGGYPITFGQGTKVEIK
# B3: Fab L1 (Fab, V domains shown)
# VH: EVQLVESGGGLVQPGGSLRLSCAASGFTISSSYIHWVRQAPGKGLEWVASISSYYGSTSYADSVKGRFTISADTSKNTAYLQMNSLRAEDTAVYYCARSHYSVWWGWHSVSYYAAFDYWGQGTLVTVSS
# VL: DIQMTQSPSSLSASVGDRVTITCRASQSVSSAVAWYQQKPGKAPKLLIYSASSLYSGVPSRFSGSRSGTDFTLTISSLQPEDFATYYCQQGSAPFTFGQGTKVEIK
# Molecular target: T1, EphA2 extracellular domain (ECD) (human, UniProt P29317 24-537)
# Experiment: SPR
# T1 sequence (P29317 24-537): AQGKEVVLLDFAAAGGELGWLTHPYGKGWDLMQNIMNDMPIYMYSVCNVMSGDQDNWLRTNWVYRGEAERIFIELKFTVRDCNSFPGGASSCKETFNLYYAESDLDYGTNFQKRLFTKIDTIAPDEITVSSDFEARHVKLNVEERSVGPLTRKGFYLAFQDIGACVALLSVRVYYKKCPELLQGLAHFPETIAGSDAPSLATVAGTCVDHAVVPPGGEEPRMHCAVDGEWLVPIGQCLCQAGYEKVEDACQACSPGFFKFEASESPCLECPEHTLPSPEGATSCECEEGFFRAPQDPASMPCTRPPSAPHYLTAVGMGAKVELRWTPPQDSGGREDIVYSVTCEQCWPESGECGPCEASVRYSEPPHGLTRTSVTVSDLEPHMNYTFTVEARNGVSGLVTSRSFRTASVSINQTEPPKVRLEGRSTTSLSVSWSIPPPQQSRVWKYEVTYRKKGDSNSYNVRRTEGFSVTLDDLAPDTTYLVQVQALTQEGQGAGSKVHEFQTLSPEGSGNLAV
row,Kd [nM],Binder
1,0.26,B1
2,0.21,B2
3,0.44,B3

# Molecular target: T1, EphA2 extracellular domain (ECD)
# Experiment: SPR
# Remark: another data set of the same source
row,koff [s⁻¹],Binder
1,7.8e-05,B1
2,0.00019,B2
3,7.2e-05,B3
